# Results as given in publication PMC2671838.
# Target: Porphyromonas gingivalis heme-binding protein HmuY, heme-bound form (holo-HmuY) (Porphyromonas gingivalis)
# Test: crystal structure; holo-HmuY (heme-bound), sitting-drop vapor diffusion at 20°C, 26 mg/mL protein in 5 mM Tris/HCl pH 8.0, reservoir 2.4 M (NH4)2SO4, 0.1 M MES pH 6.0; tetragonal crystals, one dimer per asymmetric unit; tetramer created by a local and a crystallographic two-fold axis
substance,measurement,value
"Porphyromonas gingivalis heme-binding protein HmuY, heme-bound form (holo-HmuY) (natural protein)",stoichiometry N,4
